What all share (assay): purified protein
For data set [1], the system named is CC(=O)Oc1ccc([N+](=O)[O-])cc1. The settings on record: 20 mM Tris-HCl pH 8.0, RT, 40 nM enzyme.
The test system of data set [2] is O=C(Cc1cccs1)N[C@@H]1C(=O)N2C(C(=O)O)=C(/C=C/c3ccc([N+](=O)[O-])cc3[N+](=O)[O-])CS[C@H]12. The settings on record: 20 mM Tris-HCl pH 8.0, RT, 15 μM enzyme.
Data set [3] has as its system CCCCCCCC(=O)Oc1ccc([N+](=O)[O-])cc1. To be noted: 20 mM Tris-HCl pH 8.0, RT, 40 nM enzyme.

What is called Km is the concentration of substrate that gives half-maximal velocity. By kcat is commonly meant the number of substrate molecules converted per active site and unit of time at saturation.

With CcEstA (Caulobacter vibrioides NA1000), the Km is 51.9 ± 2.44 µM in data set [1], 1348 µM in data set [2] and 43.4 ± 3.15 µM in data set [3]. Further, the catalytic constant (kcat) in data set [1] is 15.2 ± 2.19 s⁻¹; in data set [2], 0.00807 s⁻¹; in data set [3], 4.03 ± 0.29 s⁻¹.

The values above are taken from article PMC5131357, “Biochemical and Structural Analysis of a Novel Esterase from Caulobacter crescentus related to Penicillin-Binding Protein (PBP)” (Scientific Reports, 2016).
